Holding throughout (format): physicochemical
The nature of data set [1]: Dissolution test (USP rotating paddle) of drug-loaded oxidized keratin tablets in simulated gastric fluid. Conditions: 500 mg tablets of drug bound to H2O2-oxidized keratin, 37 C. As to the method: Dissolution tests are performed according to the standard United States Pharmacopoeia (USP) rotating paddle method. In this method, the volume of the dissolution medium is fixed and agitation is provided under defined conditions by the stainless steel paddle. A 1L volume of purified water or simulated gastric fluid (Lot. No. 76H9312, Sigma-Aldrich, St. Louis, Mo.) was used at 37° C.±0.5° C. The temperature of the dissolution medium was maintained at 37° C. by immersing the dissolution flask in a water bath. A cover was used on the system to avoid water loss through evaporation. […]
During the test, small volumes of sample were withdrawn at various time points, for example, every 20 minutes within the first hour (including a 0 time point) and every hour after that for 8 hours. […] High-performance liquid chromatography (HPLC) was performed on the samples and the amount released from the dosage form calculated based on a calibration curve generated from solutions with known concentrations of the compound of interest.
Tablet samples that incorporated the vasoconstrictor norephedrine were prepared by binding the drug to oxidized keratin in an ion exchange step. […] This was accomplished by dissolving a measured amount of norephedrine into ethanol, adding 5 g of oxidized keratin and heating to reflux for 2 hours, followed by stirring at room temperature for 24 hours. […]

Data set [2] in a line: Loading of acetaminophen into keratin tablets (tablet disintegrated in water, HPLC). To be noted: acetaminophen bound to H2O2-oxidized keratin, 500 mg tablets. How it is done: Evaluation of the loading of acetaminophen was accomplished by disintegrating a single tablet into a known volume of water over a one week period at room temperature. In addition, that samples were sonicated for 90 minutes prior to sampling. A sample of the solution was withdrawn and analyzed by HPLC.

Data set [3] in a line: Dissolution test (USP rotating paddle) of albumin from keratin tablets and capsules. As to the method:
Dissolution tests are performed according to the standard United States Pharmacopoeia (USP) rotating paddle method. In this method, the volume of the dissolution medium is fixed and agitation is provided under defined conditions by the stainless steel paddle. A 1L volume of purified water or simulated gastric fluid (Lot. No. 76H9312, Sigma-Aldrich, St. Louis, Mo.) was used at 37° C.±0.5° C. The temperature of the dissolution medium was maintained at 37° C. by immersing the dissolution flask in a water bath. A cover was used on the system to avoid water loss through evaporation. After the temperature equilibrated, the samples were allowed to sink to the bottom of the vessel before rotation of the paddle. Rotation speed was kept constant at 50 rpm.
During the test, small volumes of sample were withdrawn at various time points, for example, every 20 minutes within the first hour (including a 0 time point) and every hour after that for 8 hours. Samples were taken from a precise point in the dissolution flask, halfway between the surface of the dissolution medium and the top of the rotating paddle, and not less than 10 mm from the wall of the vessel. The volume withdrawn during sampling was replaced with an equal volume of media, pre-warmed to 37° C. High-performance liquid chromatography (HPLC) was performed on the samples and the amount released from the dosage form calculated based on a calibration curve generated from solutions with known concentrations of the compound of interest.
Samples containing albumin were made in tablet and capsule forms. Tablets were prepared by co-grinding a mixture of 80/20 dry keratin absorbent powder/bovine albumin. The keratin absorbent powder was prepared as described in Section VI. B supra, and the albumin was purchased from Sigma Chemical Co., St. Louis, Mo. (Lot No. 69H1257, Fraction V, 96% purity). The solid mixture was further homogenized by shaking in a closed container. Samples of 500 mg of the powder mixture were made into tablets using a pellet press at 30,000 psi (400 mg keratin, 100 mg albumin). The dissolution profile of these tablets was measured by the rotating paddle method.
Albumin capsules were prepared by dissolving 2 g of albumin in 200 g of deionized water. The albumin solution was added to 8 g of absorbent keratin powder to form a hydrogel. The hydrogel was thoroughly mixed and poured into petri dishes. The water was removed under vacuum at room temperature. After drying for approximately 36 hours, the resulting solid was ground using a mortar and pestle. 400 mg of the ground keratin/albumin powder (320 mg keratin/80 mg albumin) was placed into each of several two-part gelatin capsules (No. 0, Eli Lilly and Co., Indianapolis, Ind.). The dissolution profile of these tablets was measured using the rotating paddle method.

The values below come from patent US6544548B1, “Keratin-based powders and hydrogel for pharmaceutical applications” (Keraplast Technologies, Ltd., priority 1999, dated 2003).

Regarding `CC(=O)Nc1ccc(O)cc1` [acetaminophen, 4-Acetaminophenol], the “time over which bound drug is released” value in data set [1] was 5 h. The “loading level in keratin tablets” value in data set [2] is reported as “low”.

For the molecule `CC(N)C(O)c1ccccc1` (centres unmarked) [norephedrine, Phenylpropanolamine], in data set [1], the “time over which bound drug is released” value was 2 h.

With “albumin: bovine albumin (Sigma, Fraction V, 96% purity) formulated with keratin absorbent powder as tablets or gelatin capsules”, the “release of albumin, water versus gastric fluid, compared with tablets” value in data set [3] (gelatin capsules (320 mg keratin/80 mg albumin, intimately mixed via hydrogel)) was “identical trend”. Also, the “amount of albumin released over an equivalent time period, capsules versus tablets” value in data set [3] (gelatin capsules, intimately mixed via hydrogel) is “much less material was released”. In data set [3] (keratin tablets (400 mg keratin, 100 mg albumin, mechanically mixed), purified water, 37 C), the “disintegration and release of albumin” value was “almost immediate and complete”. The “equilibrium amount of albumin released, gastric fluid versus water” value in data set [3] (keratin tablets, simulated gastric fluid) is “significantly lower”. Moreover, the release of albumin result in data set [3] (keratin tablets, simulated gastric fluid, 37 C) is “immediate”.
